For test [1], the target named is MBP-Sbh1 full length (UniProt P52870). The experiment in a line: pull-down (Ni-NTA capture after coexpression, Coomassie quantification). Particulars: experiments performed 3 to 4 times; parent: 1.
The target in test [2] is T1, MBP-Sbh1 full length, P52870.
T1 chain: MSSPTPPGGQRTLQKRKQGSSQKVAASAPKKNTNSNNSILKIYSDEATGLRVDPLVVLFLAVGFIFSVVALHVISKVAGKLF
The description is as above. Conditions: chain shown with the change; capture assay repeated three times; parent: 1.

Test [3] concerns the target hSgt2 M233D (Homo sapiens) (UniProt O43765). The experiment in a line: pull-down; capture assay: His-tagged Sgt2 construct coexpressed with MBP-Sbh1 in E. coli; lysate incubated in batch with Ni-NTA resin at 4 °C for 1 h, washed with 20 mM Tris, 150 mM NaCl, 25 mM imidazole, 10 mM BME, pH 7.5, eluted with 300 mM imidazole; Coomassie-stained gel, MBP-Sbh1/Sgt2 ratio normalised to wild type.

Positions count from the first letter of the chain named. Names may count otherwise.

For the molecule “His-tagged hSgt2-C (hSgt2 213-313) (from UniProt O43765) H5A”, in test [1], the ratio to parent worked out at 0.67.
Same read-out and setting: then “His-tagged ySgt2-C (ySgt2 222-346) (from UniProt Q12118) H3A”, with 0.19; and “His-tagged ySgt2-C (ySgt2 222-346) (from UniProt Q12118) H4A”, with 0.27; and “His-tagged hSgt2-C (hSgt2 213-313) (from UniProt O43765) H0A”, with 0.63.
Regarding “His-tagged ySgt2-C (ySgt2 222-346) (from UniProt Q12118) H2A”, the ratio to parent in test [1] was found to be 0.1.
Still for that read-out and setting: the same measure for “His-tagged hSgt2-C (hSgt2 213-313) (from UniProt O43765) H2/3A”: 0.27; for “His-tagged ySgt2-C (ySgt2 222-346) (from UniProt Q12118) H1A”: 0.03.
Still for that read-out and setting: then “His-tagged hSgt2-C (hSgt2 213-313) (from UniProt O43765) H1A”, with 0.21.
Same read-out and setting: the same measure for “His-tagged hSgt2-C (hSgt2 213-313) (from UniProt O43765) H4A”: 0.55; for “His-tagged ySgt2-C (ySgt2 222-346) (from UniProt Q12118) H5A”: 0.32.

B1: His-tagged hSgt2-C (hSgt2 213-313), O43765 L224D; F280D (protein)
chain: TGGVGSFDIAGDLNNPGFMSMASNLMNNPQIQQLMSGMISGGNNPLGTPGTSPSQNDLASLIQAGQQDAQQMQQQNPELIEQLRSQIRSRTPSASNDDQQE
B1: the ratio to parent in test [2] came out at 0.21.

B2: His-tagged hSgt2-C (hSgt2 213-313), O43765 L224D; L295D (protein)
chain: B1 chain with D68F, L83D
Turning to B2, the ratio to parent in test [2] was found to be 0.16.

B3: His-tagged hSgt2-C (hSgt2 213-313), O43765 M233D; F280D (protein)
chain: B1 chain with D12L, M21D
As to B3, the ratio to parent in test [2] was found to be 0.59.

B4: His-tagged hSgt2-C (hSgt2 213-313), O43765 L224D (protein)
chain: B1 chain with D68F
As to B4, in test [2], the ratio to parent was found to be 0.71.

B5: His-tagged hSgt2-C (hSgt2 213-313), O43765 L295D (protein)
chain: B1 chain with D12L, D68F, L83D
Turning to B5, the ratio to parent in test [2] was 0.86.

B6: His-tagged hSgt2-C (hSgt2 213-313), O43765 F280D (protein)
chain: B1 chain with D12L
For the molecule B6, in test [2], the ratio to parent was 0.69.

B7: His-tagged hSgt2-C (hSgt2 213-313), O43765 M233D; L295D (protein)
chain: B1 chain with D12L, M21D, D68F, L83D
Regarding B7, the ratio to parent in test [2] came to 0.44.

B8: His-tagged hSgt2-C (hSgt2 213-313), O43765 M247D (protein)
chain: B1 chain with D12L, M35D, D68F
Regarding B8, the ratio to parent in test [2] worked out at 0.68.

B9: MBP-Sbh1 full length (natural protein)
chain: T1 chain
In the case of B9, the percent reduction of binding relative to wild type in test [3] stood at 36%.

B10: His-tagged ySgt2-C (ySgt2 222-346), Q12118 M315D (protein)
chain: SLNLEKTVPEQSRDADVDASQGASAGGLPDLGSLLGGGLGGLMNNPQLMQAAQKMMSNPGAMQNIQKMMQDPSIRQMAEGFASGGGTPNLSDLDNNPALRNMAGNLFGGAGAQSTDETPDNENKQ
For B10, the ratio to parent in test [2] worked out at 0.34.

B11: His-tagged ySgt2-C (ySgt2 222-346), Q12118 I286D (protein)
chain: B10 chain with I65D, D94M
Consider B11, for which the ratio to parent in test [2] is 0.13.

B12: His-tagged ySgt2-C (ySgt2 222-346), Q12118 M277D (protein)
chain: B10 chain with M56D, D94M
Turning to B12, the ratio to parent in test [2] is 0.14.

B13: His-tagged ySgt2-C (ySgt2 222-346), Q12118 M290D (protein)
chain: B10 chain with M69D, D94M
As to B13, the ratio to parent in test [2] came to 0.18.

B14: His-tagged ySgt2-C (ySgt2 222-346), Q12118 L320D (protein)
chain: B10 chain with D94M, L99D
On to B14, for which the ratio to parent in test [2] amounted to 0.23.

B15: His-tagged ySgt2-C (ySgt2 222-346), Q12118 I295D (protein)
chain: B10 chain with I74D, D94M
In the case of B15, the ratio to parent in test [2] was 0.21.

B16: His-tagged ySgt2-C (ySgt2 222-346), Q12118 L327D (protein)
chain: B10 chain with D94M, L106D
B16: in test [2], the ratio to parent was 0.4.

B17: His-tagged ySgt2-C (ySgt2 222-346), Q12118 M323D (protein)
chain: B10 chain with D94M, M102D
In the case of B17, the ratio to parent in test [2] is 0.29.

These data come from paper PMC8010706.
